The text below walks through data of patent publication US20210079060A1 (ALETA BIOTHERAPEUTICS, published 2021).

To fix the notation:
B1: CD19 mutant #2-G4Sx4-anti CLEC12a VHH 1G6-myc-His (VHH)
chain: PEEPLVVKVEEGDTAVLPCLKGTSDGPTQQLTWSRESPLKPFLKYSLGVPGLGVHVRPDAISVVIRNVSQQMGGFYLCQPGPPSEKAWQPGWTVNVEGSGELFRWNVSDLGGLGCGLKNRSSEGPSSPSGKLMSPKLYVWAKDRPEIWEGEPPCLPPRDSLNQSLSQDLTMAPGSTLWLSCGVPPDSVSRGPLSWTHVHPKGPKSLLSLELKDDRPAREMIVDETGLLLPRATAQDAGKWYCSRGNVTTSYHLEITARPVKAHSDLRTGGWKGGGGSGGGGSGGGGSGGGGSQVQLQQSGGGLVQAGGSLRLSCAASGSIFAINEINLMGWYRQAPGKQRELVAACASDGNTYYADSVKGRFTISRDNAEKTVYLQMNNLKPDDTAVYYCDANSRGNYYSGQGTQVTVSSTSGPGGQGAEQKLISEEDLGAHHHHHHGAS
notes: CD19 variant-VHH fusion
B2: CD19 mutant #2-G4Sx4-anti CLEC12a VHH 2F5-myc-His (VHH)
chain: B1 chain with V304A, A306T, R311I
notes: CD19 variant-VHH fusion
B3: CD19 mutant #2-G4Sx4-anti CLEC12a VHH 2H3-myc-His (VHH)
chain: PEEPLVVKVEEGDTAVLPCLKGTSDGPTQQLTWSRESPLKPFLKYSLGVPGLGVHVRPDAISVVIRNVSQQMGGFYLCQPGPPSEKAWQPGWTVNVEGSGELFRWNVSDLGGLGCGLKNRSSEGPSSPSGKLMSPKLYVWAKDRPEIWEGEPPCLPPRDSLNQSLSQDLTMAPGSTLWLSCGVPPDSVSRGPLSWTHVHPKGPKSLLSLELKDDRPAREMIVDETGLLLPRATAQDAGKWYCSRGNVTTSYHLEITARPVKAHSDLRTGGWKGGGGSGGGGSGGGGSGGGGSQVQLQESGGGLVQAGGSLRLSCVASGSIRSINVMGWYRQAPGKQRELVAACASDGNTYYADSVKGRFTISRDNAEKTVYLQMNNLKPDDTAVYYCDANSRGNYYSGQGTQVTVSSTSGPGGQGAEQKLISEEDLGAHHHHHHGAS
notes: CD19 variant-VHH fusion
B4: CD19 mutant #2-G4Sx4-anti CLEC12a VHH 2F3-myc-His (VHH)
chain: PEEPLVVKVEEGDTAVLPCLKGTSDGPTQQLTWSRESPLKPFLKYSLGVPGLGVHVRPDAISVVIRNVSQQMGGFYLCQPGPPSEKAWQPGWTVNVEGSGELFRWNVSDLGGLGCGLKNRSSEGPSSPSGKLMSPKLYVWAKDRPEIWEGEPPCLPPRDSLNQSLSQDLTMAPGSTLWLSCGVPPDSVSRGPLSWTHVHPKGPKSLLSLELKDDRPAREMIVDETGLLLPRATAQDAGKWYCSRGNVTTSYHLEITARPVKAHSDLRTGGWKGGGGSGGGGSGGGGSGGGGSQVQLQAFGGGLVQPGGSLRLSCVVSGTMFSGKDVNWLRQAPGKHVEVVATVSSDGGTDYADFVKGRFTISRDDAKNTVNLQMNSLEPEDTANYMCHFLWGRHYWGQGTQVTVSSTSGPGGQGAEQKLISEEDLGAHHHHHHGAS
notes: CD19 variant-VHH fusion
B5: CD19 ECD N term mutant#2-EGFR Fn3 (designed binder)
chain: PEEPLVVKVEEGDTAVLPCLKGTSDGPTQQLTWSRESPLKPFLKYSLGVPGLGVHVRPDAISVVIRNVSQQMGGFYLCQPGPPSEKAWQPGWTVNVEGSGELFRWNVSDLGGLGCGLKNRSSEGPSSPSGKLMSPKLYVWAKDRPEIWEGEPPCLPPRDSLNQSLSQDLTMAPGSTLWLSCGVPPDSVSRGPLSWTHVHPKGPKSLLSLELKDDRPAREMIVDETGLLLPRATAQDAGKWYCSRGNVTTSYHLEITARPVKAHSDLRTGGWKGGGGSGGGGSGGGGSGGGGSVSDVPRDLEVVAATPTSLLISWFDYAVTYYRITYGETGGNSPVQEFTVPGWISTATISGLKPGVDYTITVYAVTDNSHWPFRSTPISTNYRTEIDKPPQHHHHHH
notes: Fusion protein; also called CD19-Fn3/EGFR
B6: CD19 ECD N term mutant#1-EGFR Fn3 (designed binder)
chain: PEEPLVVKVEEGDDAWLRCLKGTSDGPTSQVTWSRESPLKPFLKYSLGVPGLGVHIRPLAIGLVIPNVSQQMGGFYLCQPGPPSEKAWQPGWTVNVEGSGELFRWNVSDLGGLGCGLKNRSSEGPSSPSGKLMSPKLYVWAKDRPEIWEGEPPCLPPRDSLNQSLSQDLTMAPGSTLWLSCGVPPDSVSRGPLSWTHVHPKGPKSLLSLELKDDRPAREMIVDETGLLLPRATAQDAGKYYCHRGNRTISYHLEITARPVSAHTPLRTGGWKGGGGSGGGGSGGGGSGGGGSVSDVPRDLEVVAATPTSLLISWFDYAVTYYRITYGETGGNSPVQEFTVPGWISTATISGLKPGVDYTITVYAVTDNSHWPFRSTPISTNYRTEIDKPPQHHHHHH
notes: also called construct #227; CD19-Fn3/EGFR
B7: #335 (VHH)
fusion protein, single chain: B1 chain with Q297V, Q298E, Q405L
notes: also called CD19 mutant #2-G4Sx4-anti CLEC12a VHH 2C8-His
B8: #334 (VHH)
fusion protein, single chain: B1 chain with Q298E
notes: also called CD19 mutant #2-G4Sx4-anti CLEC12a VHH 1B1-His
B9: #333 (VHH)
fusion protein, single chain: B3 chain with A306V, G308E, A316V, S319D, I320T, V325L, Q402L
notes: also called CD19 mutant #2-G4Sx4-anti CLEC12a VHH 1A10-His
B10: #290 (VHH)
fusion protein, single chain: PEEPLVVKVEEGDTAVLPCLKGTSDGPTQQLTWSRESPLKPFLKYSLGVPGLGVHVRPDAISVVIRNVSQQMGGFYLCQPGPPSEKAWQPGWTVNVEGSGELFRWNVSDLGGLGCGLKNRSSEGPSSPSGKLMSPKLYVWAKDRPEIWEGEPPCLPPRDSLNQSLSQDLTMAPGSTLWLSCGVPPDSVSRGPLSWTHVHPKGPKSLLSLELKDDRPAREMIVDETGLLLPRATAQDAGKWYCSRGNVTTSYHLEITARPVKAHSDLRTGGWKGGGGSGGGGSGGGGSGGGGSQVQLQESGGGLVQPGGSLRLSCAASGFTFNSYAMTWVRQAPGKGLEWVSDINSGGGSTNYADSVKGRFTISRDNAKNTLYLQMNSLKPEDTAVYYCATELRGSDYYRGPIREYAYWGQGTLVTVSSTSGPGGQGAEQKLISEEDLGAHHHHHHGAS
notes: also called construct #290; CD19 mutant #2-G4Sx4-anti CLEC12a VHH 1H1-His
B11: anti-CLEC12a VHH 1A10-CD19 D1+2 C term mutant #2 (VHH)
VHH: QVQLQESGGGLVQVGESLRLSCVVSGDTRSINLMGWYRQAPGKQRELVAACASDGNTYYADSVKGRFTISRDNAEKTVYLQMNNLKPDDTAVYYCDANSRGNYYSGQGTLVTVSS
B12: anti-CLEC12a VHH 1B12-G4Sx4-CD19 D1+2 C term mutant #2-His (VHH)
VHH: QVQLQASGGGLVQAGGSLRLSCAASGSIFAINEINLMGWYRQAPGKQRELVAACASDGNTYYADSVKGRFTISRDNAEKTVYLQMNNLKPDDTAVYYCDANSRGNYYSGQGTQVTVSS
B13: anti-CLEC12a VHH 1B1-G4Sx4-CD19 D1+2 C term mutant #2-His (VHH)
VHH: B12 VHH with A6E
B14: #329 (VHH)
VHH: B12 VHH with A6Q, V12A, A14T, R19I
notes: also called anti CLEC12a VHH 2F5-G4Sx4-CD19 C-term mutant #2-His

A word on the EC50: it is the concentration giving half of the maximal effect.

Substitutions are numbered along the chain they refer to. “And” between values parts separate entries of the source, which are not always exact repeats. Equal entries are not always repeated.

The first experiment addresses T1, Clec12A (human, UniProt Q5QGZ9 1-265).
T1 construct: whole, on cells; also called CLL-1; MICL
T1 sequence (looked up): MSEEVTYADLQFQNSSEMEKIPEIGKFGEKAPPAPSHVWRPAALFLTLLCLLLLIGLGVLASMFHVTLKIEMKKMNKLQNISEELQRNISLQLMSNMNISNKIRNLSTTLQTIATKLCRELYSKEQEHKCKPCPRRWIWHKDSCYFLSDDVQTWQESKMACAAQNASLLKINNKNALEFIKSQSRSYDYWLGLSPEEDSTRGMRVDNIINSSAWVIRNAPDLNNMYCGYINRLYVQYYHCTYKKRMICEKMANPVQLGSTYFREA
The experiment in a line: binding to U937 cells; supernatant.
In turn, B1 gave a concentration giving a half-maximal response (EC50) of 0.157 µg/mL.
The same measure, in the same setting: the result for B2 reads 0.151 µg/mL; that for B3, 0.224 µg/mL; that for B4, 0.173 µg/mL.

Another experiment deals with T2, EGFR (UniProt P00533 25-1210, limits assumed).
T2 construct: whole, on cells; also called EGFR positive cells; EGFR positive H292 cells
Briefly: binding to EGFR positive cells (data not shown).
For B5, the binding result is listed as “binds”.
On the same count and under the same terms, the result for B6 reads “binds”.

The next experiment has as its target T1, Clec12A. Briefly: binding to U937 cells; supernatant; MW = 46kDa.
Turning to B1, the half-maximal effective concentration (EC50) was found to be 3.4 nM.
B2 returned a 50% effective concentration (EC50) of 3.29 nM.
Turning to B3, a half-maximal response (EC50) required 4.87 nM.
On the same count and under the same terms, to B4 belongs 3.76 nM.

The next experiment concerns the target T1, Clec12A. Briefly: sandwich ELISA: coated with FMC63, construct titrated (x-axis ug/ml), followed by Clec12A-bio, detected by HRP-SA. A general note: ELISA stands for enzyme-linked immunosorbent assay.
On to B1, for which the “C of the 4-P fit (midpoint)” value was determined as 0.0113 µg/mL; the concentration for a half-maximal effect (EC50) was 0.0113 µg/mL and 0.243 nM.
Take B2: the “C of the 4-P fit (midpoint)” value is 0.00983 µg/mL; the EC50 was 0.0098 µg/mL and 0.21 nM.
Regarding B7, the “C of the 4-P fit (midpoint)” value was found to be 0.0108 µg/mL; the EC50 was 0.0108 µg/mL and 0.232 nM.
As to B8, the “C of the 4-P fit (midpoint)” value was 0.0112 µg/mL; the EC50 was 0.0112 µg/mL and 0.241 nM.
As for B3, the “C of the 4-P fit (midpoint)” value was 0.0201 µg/mL; the 50% effective concentration (EC50) was 0.0201 µg/mL and 0.432 nM.
For the molecule B9, the “C of the 4-P fit (midpoint)” value was 0.0106 µg/mL; the EC50 is 0.0106 µg/mL and 0.228 nM.
Consider B10, for which the “C of the 4-P fit (midpoint)” value worked out at 0.037 µg/mL; the EC50 is 0.037 µg/mL and 0.796 nM.

Another experiment concerns the target T1, Clec12A. The experiment is described as above. This is another data set of the same source.
On to B11, for which the “C of the 4-P fit (midpoint)” value turned out to be 0.00751 µg/mL; the EC50 is 0.0075 µg/mL and 0.161 nM.
As to B12, the “C of the 4-P fit (midpoint)” value was 0.015 µg/mL; the EC50 is 0.015 µg/mL and 0.323 nM.
B13: the “C of the 4-P fit (midpoint)” value is 0.00648 µg/mL; the EC50 is 0.0065 µg/mL and 0.14 nM.
As to B14, the “C of the 4-P fit (midpoint)” value was found to be 0.0107 µg/mL; the half-maximal effective concentration (EC50) is 0.0107 µg/mL and 0.23 nM.
